Source: patent EP4386000A1 (Nanjing Novoacine Bio-Technology Co., Ltd., dated 2024)
Like-named read-outs stand apart in the source and are kept apart here.

T1: human CD25 (NP_000408.1) (Met 1-Cys 213) C-terminally fused with 6-histidine tag (human, UniProt P01589 22-213)
T1 construct: range 1-213; Expressed in CHO-K1 cells; also called human CD25-his
T1 sequence: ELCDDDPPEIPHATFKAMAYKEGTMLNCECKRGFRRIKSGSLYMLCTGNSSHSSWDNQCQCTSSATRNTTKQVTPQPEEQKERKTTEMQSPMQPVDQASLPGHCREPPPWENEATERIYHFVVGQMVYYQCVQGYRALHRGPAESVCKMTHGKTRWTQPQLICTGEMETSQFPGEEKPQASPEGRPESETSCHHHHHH

T2: Mouse CD25-his (UniProtKB-P01590, Met1-Lys213) (mouse, UniProt P01590 22-213)
T2 construct: range 1-213; Range begins at Met1 (includes the signal peptide); not shown: his tag
T2 sequence (looked up): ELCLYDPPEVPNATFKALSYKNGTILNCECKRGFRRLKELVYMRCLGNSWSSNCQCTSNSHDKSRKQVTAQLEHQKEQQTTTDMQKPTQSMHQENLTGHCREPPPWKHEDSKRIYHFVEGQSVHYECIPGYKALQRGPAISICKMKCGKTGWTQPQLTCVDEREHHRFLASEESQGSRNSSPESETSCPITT

T3: CD25 on CD4+CD25+ Treg cells isolated from human PBMCs (human, UniProt P01589 22-272)
T3 sequence (looked up): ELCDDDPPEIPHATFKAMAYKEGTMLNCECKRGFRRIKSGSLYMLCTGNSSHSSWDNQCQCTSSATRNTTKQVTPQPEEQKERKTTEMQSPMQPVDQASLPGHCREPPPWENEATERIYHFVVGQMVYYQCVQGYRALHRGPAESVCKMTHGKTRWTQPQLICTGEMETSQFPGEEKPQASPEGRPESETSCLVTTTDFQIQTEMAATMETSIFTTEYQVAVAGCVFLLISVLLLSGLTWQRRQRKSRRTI

T4: human CD25 on CHO-K1/hCD25 cells (human, UniProt P01589 22-272)
T4 construct: whole, on cells; The construct of the cell line is not described
T4 sequence (looked up): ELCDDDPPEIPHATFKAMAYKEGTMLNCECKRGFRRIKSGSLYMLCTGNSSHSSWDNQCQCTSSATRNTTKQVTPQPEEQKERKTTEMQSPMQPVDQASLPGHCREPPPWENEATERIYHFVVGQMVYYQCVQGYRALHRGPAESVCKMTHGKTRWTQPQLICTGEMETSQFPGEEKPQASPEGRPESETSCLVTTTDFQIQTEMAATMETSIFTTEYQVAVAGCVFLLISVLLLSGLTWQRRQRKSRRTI


Assays:
[1] = biological target: T1, human CD25 (NP_000408.1) (Met 1-Cys …); test: SPR (BIAcore X100), human CD25-his captured by anti-histidine antibody, antibody as analyte, 1:1 model
[2] = biological target: T1, human CD25 (NP_000408.1) (Met 1-Cys …); test: as above; remark: listed apart in the source
[3] = biological target: T1, human CD25 (NP_000408.1) (Met 1-Cys …); test: ELISA, human CD25-his coated
[4] = biological target: T2, Mouse CD25-his (UniProtKB-P01590, …); test: ELISA, mouse CD25-his coated
[5] = biological target: T5, cyno CD25-his (NCBI-H6WS54, Met1-Arg213) (cyno); test: ELISA, cyno CD25-his coated
T5 construct: range 1-213; Range begins at Met1 (includes the signal peptide)

[6] = biological target: T3, CD25 on CD4+CD25+ Treg cells isolated …; test: cell-based or functional assay
[7] = biological target: T4, human CD25 on CHO-K1/hCD25 cells; test: flow cytometry on CHO-K1/hCD25 cells

Binder	Kd [1]	koff [1]	kon [1]	Kd [2]	koff [2]	kon [2]	EC50 [3]	Relative activity (%) compared with 686 [3]	binding result [4]	EC50 [5]	EC50, killing Tregs in vitro (ADCC reporter, jurkat/CD16a/NFAT-luc) [6]	Relative activity (%) compared with 686, killing Tregs in vitro [6]	EC50 [7]	Relative activity (%) compared with 686 [7]
humanized antibody 2047-3H1L2 (antibody, human IgG1, kappa, V domains shown) VH: EVQLVQSGAEVKKPGATVKISCKTSGYTFTDYVISWVQQAPGKGLEWMGEIYPGSGSTYYNEKFKGRVTITADISTNTAYMELSSLRSEDTAVYYCASINFDYWGQGTLVTVSS VL: EIVMTQSPATLSLSPGERATLSCRASQSISDYLHWYQQKPGQAPRLLIKYASQSISGIPARFSGSGSGSDFTLTISSLQPEDVAVYYCQSGHSFPYTFGQGTKLEIKR	1.43 nM	0.000498 s⁻¹	348000 M⁻¹ s⁻¹											
chimeric antibody 2046-111H2L1 (antibody, human IgG1, kappa, V domains shown, Chimeric, human IgG1/kappa) VH: DVQLQESGPGLVKPSQSLSLTCTVTGHSITSDYAWNWIRQFPGNKLEWMGYISYSGSTIYNPSLKSRISITRDTSKNQFFLQLNSVTTEDTATYYCARWLLQNYYAMDYWGQGTSVTVSS VL: DVVMTQTPLSLPVSLGDQASISCRSSQSLVHSNGNTYLHWYLRKPGQSPKLLIYKVSNRFSGVPDRFSGSGSGTDFTLKISRVEAEDLGVYFCSQSTHVPLTFGAGTKLELKR				0.819 nM	0.000431 s⁻¹	526000 M⁻¹ s⁻¹	0.0989 µg/mL	105%	no binding (tested: starting at 100 ng/mL)	0.0447 µg/mL	89.8 µg/mL	145%	0.00109 µg/mL	132%
chimeric antibody 2046-61H1L2 (antibody, human IgG1, kappa, Chimeric, human IgG1/kappa; also called 2046-61ix) heavy: not shown light: DVVMTQTPLSLPVSLGDQASISCRSSQSLVHSNGNTYLHWNLQKPGQSPKLLIYKVSNRFSGVPDRFSGSGSGTDFTLKISRVEAEDLGVYFCSQSTHVPLTFSAGTKLELKRTVAAPSVFIFPPSDEQLKSGTASVVCLLNNFYPREAKVQWKVDNALQSGNSQESVTEQDSKDSTYSLSSTLTLSKADYEKHKVYACEVTHQGLSSPVTKSFNRGEC				9.44 nM	0.0121 s⁻¹	1.28e+06 M⁻¹ s⁻¹	0.144 µg/mL	72.2%	no binding (tested: starting at 100 ng/mL)	0.0601 µg/mL	34.1 µg/mL	380%	0.00114 µg/mL	107%
chimeric antibody 2046-24H2L1 (antibody, human IgG1, kappa, V domains shown, Chimeric, human IgG1/kappa; also called 2046-24ix) VH: DVQLQESGPGLVKPSQSLSLTCTVTGYSITSDYAWNWIRQFPGNKLEWMGYISYGGTTIYNPSLKSRISITRDTSKNQFFLQLNSVTTEDTATYYCARWLLQNYYAMDYWGQGTSVTVSS VL: DVVMTQTPLSLPVSLGDQASISCRSSQSLVHSNGNTYLHWYLQKPGQSPKVLIYKVSNRFSGVPDRFSGSGSGTDFTLKISRVEAEDLGVYFCSQNTHVPLTFGAGTKLELKR				7.63 nM	0.00349 s⁻¹	458000 M⁻¹ s⁻¹	0.106 µg/mL	98.2%	no binding (tested: starting at 100 ng/mL)	0.0424 µg/mL	26.5 µg/mL	491%	0.00143 µg/mL	131%
chimeric antibody 2046-2H1L1 (antibody, human IgG1, kappa, V domains shown, Chimeric (murine V, human IgG1/kappa); also called 2046-2ix) VH: DVQLQESGPGLVKPSQSLSLTCTVTGYSITSDYAWNWIRHFPGNKLEWMGYITYSGSTVYNPSLKSRISITRDTSKNHFFLQLNSVTTEDTATYYCARWLLQIYYAMDYWGQGTSVTVSS VL: DVVMTQTPLSLPVSLGDQASISCRSSQSLVHSNGNTYLHWYLQKPGQSPKLLIYKVSNRFSGVPDRFSGSGSGTDFTLKISRVEAEDLGVYFCSQSTHVPLTFGAGTKLELKR				4.27 nM	0.00318 s⁻¹	745000 M⁻¹ s⁻¹	0.105 µg/mL	99%	no binding (tested: starting at 100 ng/mL)	0.0594 µg/mL	22.2 µg/mL	584%	0.00192 µg/mL	63.8%
chimeric antibody 2046-18H1L1 (antibody, human IgG1, kappa, V domains shown, Chimeric, human IgG1/kappa; also called 2046-18ix) VH: DVQLQESGPGLVKPSQSLSLTCTVTGYSITSDYAWNWIRQFPGNKLEWMGYISYSGITIYNPSLKSRISITRDTSKNQFFLQLNSVTTEDTATYYCARWLLQIYYAMDYWGQGTSVTVSS VL: DVVMTQTPLSLPVSLGDQASISCSSSQSLVHSNGNTYLHWYLHKPGQSPKLLIYKVSNRFSGVPDRFSGSGSGTDFTLKISRVEAEDLGVYFCSQSTHVPLTFGAGTKLELKR				0.703 nM	0.000326 s⁻¹	463000 M⁻¹ s⁻¹	0.102 µg/mL	102%	no binding (tested: starting at 100 ng/mL)	0.0483 µg/mL	31.7 µg/mL	410%	0.00171 µg/mL	110%
chimeric antibody 2047-3H8L2 (antibody, human IgG1, kappa, V domains shown, Chimeric, human IgG1/kappa; also called 2047-3ix) VH: QVQLKQSGAELVKPGASVKMSCKTSGYTFTDYVISWVKQRTGQGLEWIGEIYPGSGSTYYNEKFKGKATLTADISSNTAYMQLSSLTSEDSAVYFCASINFDYWGHGTTLTVSS VL: DIVMTQSPATLSVTPGDRVSLSCRASQSISDYLHWYQQKSHESPRLLIKYASQSISGIPSRFSGSGSGSDFTLSINSVEPEDVGVYYCQNGHSFPYTFGGGTKLEIKR				0.308 nM	7.26e-05 s⁻¹	236000 M⁻¹ s⁻¹	0.111 µg/mL	93.6%	no binding (tested: starting at 100 ng/mL)	0.189 µg/mL	857 µg/mL	15.2%	0.00143 µg/mL	205%
chimeric antibody 2047-10H1L2 (antibody, human IgG1, kappa, V domains shown, Chimeric, human IgG1/kappa; also called 2047-10ix) VH: QVQLQQSGPELVRPGVSVKISCKGSGYTFTDYAMHWVKQSHAKSLEWIGVISTYNGNTNYNQKFKGKATMTVDKSSSTAYMELARLTSEDSAIYYCARSYGNYPFDYWGQGTTLTVSS VL: DIKMTQSPSSMYASLGERVTITCKASQDINSYLSWFQQKPGKSPKTLIYRANRLVDGVPSRFSGSGSGQDYSLTISSLEYEDMGIYYCLQYDEFPYTFGGGTKLEIKR				15.5 nM	0.0122 s⁻¹	788000 M⁻¹ s⁻¹	0.186 µg/mL	56%	no binding (tested: starting at 100 ng/mL)	2.6 µg/mL	41.4 µg/mL	314%	0.00246 µg/mL	120%
humanized antibody 2046-111H1L1-m2 (antibody, human IgG1, kappa, V domains shown) VH: EVQLQESGPGLVKPSQTLSLTCTVSGHSITSDYAWNWIRQPPGKGLEWIGYISYSGSTIYNPSLKSRVTISRDTSKNQFSLKLSSVTAADTAVYYCARWLLQNYYAMDYWGQGTLVTVSS VL: EIVLTQSPGTLSLSPGERATLSCRSSQSLVHSNGNTYLHWYQQKPGQAPRLLIYKVSNRFSGIPDRFSGSGSGTDFTLTISRLEPEDFAVYYCSQSTHVPLTFGQGTKLEIKR	6.35 nM	0.00414 s⁻¹	652000 M⁻¹ s⁻¹											
humanized antibody 2047-10H2L2 (antibody, human IgG1, kappa, V domains shown) VH: EVQLVQSGAEVKKPGATVKISCKGSGYTFTDYAMHWVQQAPGKGLEWMGVISTYSGNTNYNQKFKGRVTITVDKSTSTAYMELSSLRSEDTAVYYCARSYGNYPFDYWGQGTLVTVSS VL: DIQMTQSPSSLSASVGDRVTITCKASQDITSYLSWFQQKPGKAPKTLIYRANRLVDGVPSRFSGSGSGQDYTLTISSLQPEDMATYYCLQYDEFPYTFGQGTKLEIKR	4.46 nM	0.00205 s⁻¹	461000 M⁻¹ s⁻¹											
humanized antibody 2046-36H1L1 (antibody, human IgG1, kappa, V domains shown) VH: EIQLVQSGSELKKPGASVKVSCKASGYTFTTAGMQWVRQAPGQGLEWMGWINTHSGVPKYAEDFKGRFVFSLDTSVSTAYLQISSLKAEDTAVYYCASDYAFGYWGQGTLVTVSS VL: DVVMTQSPLSLPVTLGQPASISCKSSQSLLYSNGKTYLYWLQQRPGQSPRRLIYLVSKLDSGVPDRFSGSGSGTDFTLKISRVEAEDLGVYYCVQGTHFPYTFGQGTKLEIKR	0.994 nM	0.00394 s⁻¹	3.96e+06 M⁻¹ s⁻¹											
